According to PMC7144210:

Tests used:
[1] = molecular target: Fc-tagged fibre 1 of the novel FAdV-4 (fowl adenovirus serotype 4 (FAdV-4), strain HLJFAd15)
[2] = molecular target: Fc-tagged fibre 1 of the novel FAdV-4 (fowl adenovirus serotype 4 (FAdV-4), strain HLJFAd15); remark: listed apart in the source

Substance | block of FAdV-4 infection of LMH cells (qPCR at 24 hpi) after pre-incubation of the virus with 3.125–12.5 ng/μl soluble CAR protein; Fc protein as negative control [1] [%] | block of FAdV-4 infectivity in LMH cells (qPCR at 24 hpi) after pre-incubation of the virus with 12.5 or 25.0 ng/μl D2-CAR; 78% at 12.5 ng/μl, 99.9% at 25 ng/μl [2] [%]
Fc-tagged CAR protein, soluble (Fc fusion) | 76 to 80 | –
D2 domain of chicken CAR, soluble, His-tagged (domain or fragment) | – | 99.9
